Test results published in patent US20220119518A1 (KUMHO HT, published 2022).
Positions count from the first letter of the chain named. Blank lines part the entries; values can stand above or below the binder they belong to.

Key:
[1] = target: T1, Antigen CD66c (CEACAM6; Sino Biological, Inc.) (UniProt P40199 35-320); assay: ELISA, CEACAM6 coated 100 ng/well, antibody at 1.52 ng/ml
T1 construct: Bought antigen, coated on the ELISA plate; construct not described; also called CECACAM6 (CD66c) antigen; CD66c antigen
T1 sequence (looked up): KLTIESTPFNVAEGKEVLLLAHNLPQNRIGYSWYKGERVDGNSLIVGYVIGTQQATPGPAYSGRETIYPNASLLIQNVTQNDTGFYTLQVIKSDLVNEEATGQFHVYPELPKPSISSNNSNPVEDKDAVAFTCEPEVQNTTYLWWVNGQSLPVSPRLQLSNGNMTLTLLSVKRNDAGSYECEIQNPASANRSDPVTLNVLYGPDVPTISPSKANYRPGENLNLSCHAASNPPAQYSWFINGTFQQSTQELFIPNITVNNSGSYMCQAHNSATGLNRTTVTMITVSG
Experimental: (§1) Antigen CD66c (CEACAM6; Sino Biological, Inc.) and CEACAM1 antigen (Sino Biological, Inc.) were coated on a 96-well plate at a rate of 100 ng per well and then blocked. The primary antibody was diluted 3-fold from 10 ug/ml and bound at 37° C. for 1 hour. […] goat anti-Human Ig-HRP conjugate (Jackson ImmunoResearch) as a secondary antibody was diluted 1:10,000 and incubated at 37° C. for 30 minutes. The washing was carried out at three times between each step, and the TMB reaction was performed, stopped with 1N H₂SO₄ solution at the same amount of TMB solution (100 ul) and then OD value was measured at 450 nm.
(§2) As a result of the experiment, the binding affinities to CD66c antigen of the five kinds of recombinant humanized antibodies selected from among 96 kinds of recombinant humanized antibodies are shown in FIG. 4a, Table 12, FIG. 4b and Table 13. FIG. 4a and Table 12 show the binding capacity of the antibodies to CECACAM6 CD66c) antigen, and FIG. 4b and Table 13 are the results for the CEACAM1 (CD66a) antigen.

[2] = target: T1, Antigen CD66c (CEACAM6; Sino …); assay: ELISA, CEACAM6 coated 100 ng/well, antibody at 4.57 ng/ml
Experimental: as §1, §2

[3] = target: T2, CEACAM1 antigen (Sino Biological, Inc.) (UniProt P13688 35-428); assay: ELISA, CEACAM1 coated 100 ng/well, antibody at 13.72 ng/ml
T2 construct: Bought antigen, coated on the ELISA plate; construct not described; also called CEACAM1 (CD66a) antigen; CD66a
T2 sequence (looked up): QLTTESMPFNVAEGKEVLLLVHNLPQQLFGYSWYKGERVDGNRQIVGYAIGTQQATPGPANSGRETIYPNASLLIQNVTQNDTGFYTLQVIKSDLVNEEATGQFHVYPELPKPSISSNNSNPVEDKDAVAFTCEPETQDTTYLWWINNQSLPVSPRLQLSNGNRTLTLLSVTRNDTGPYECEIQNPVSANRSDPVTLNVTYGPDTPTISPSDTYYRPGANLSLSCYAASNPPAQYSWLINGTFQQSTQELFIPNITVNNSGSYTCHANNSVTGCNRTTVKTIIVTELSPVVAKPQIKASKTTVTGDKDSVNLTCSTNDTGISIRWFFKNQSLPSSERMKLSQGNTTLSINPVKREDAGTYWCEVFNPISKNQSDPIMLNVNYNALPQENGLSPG
Experimental: as §1

[4] = target: T1, Antigen CD66c (CEACAM6; Sino …); assay: ELISA, CEACAM6 coated 100 ng/well, antibody at 123.46 ng/ml
Experimental: as §1, §2

[5] = target: T1, Antigen CD66c (CEACAM6; Sino …); assay: ELISA, CEACAM6 coated 100 ng/well, antibody at 370.37 ng/ml
Experimental: as §1, §2

[6] = target: T1, Antigen CD66c (CEACAM6; Sino …); assay: ELISA, CEACAM6 coated 100 ng/well, antibody at 1111.11 ng/ml
Experimental: as §1, §2

[7] = target: T1, Antigen CD66c (CEACAM6; Sino …); assay: ELISA, CEACAM6 coated 100 ng/well, antibody at 10000.00 ng/ml
Experimental: as §1, §2

[8] = target: T3, CD66c (Cluster of Differentiation 66c) on cells (UniProt P40199 35-320, limits assumed); assay: flow cytometry on CD66c-positive A549 cells, FITC anti-human IgG
T3 construct: whole, on cells; also called CEACAM6; CEACAM 6
T3 sequence (looked up): T1 sequence (looked up)
Experimental: Each expressed 96 recombinant humanized antibody was poured and reacted in a test tube containing the same amount […] of CD66c-positive A549 non-small-cell lung cancer cell line at 4° C. for 30 minutes, washed with PBS, and treated with FITC-conjugated goat anti-Huma IgG (DiNona Inc, Korea) was added and incubated at 4° C. for 15 minutes. After washing with PBS, the cells were analyzed with a flow cytometer (Stratedigm, S1000EXi) and the results are shown below.
Among the 96 recombinant humanized antibody candidates, eight were firstly selected based on the degree of expression, the presence of aggregation, and the degree of cell binding (Table 9 and Table 10, FIGS. 3A to 3E).

B2: recombinant humanized anti-CD66c antibody Protein ID 3007 (Vk7 + VH6) (antibody, human IgG1, V domains shown)
VH: QVQLVQSGAEVKKPGASMKISCKASGYSFTDYTMNWVKQAPGQNLEWIGLINPFHGGTVSNQRFKVKATLTVDVSTNTAYMELSRLRSDDTAVYYCVRGDPVRHYYALAYWGQGTLVTVSS
VL: DIQMTQSPSTLSASVGDRVTITCGASENVYGTLNWYQRKPGKAPKLLIYGATNLADGVPSRFSGSGSGTEYTLTISSLQPDDFATYYCQNVLSAPYTFGGGTKLEIK
notes: also called hu 3007; #43
OD 450 nm [1]: 0.79 OD 450 nm
OD 450 nm [2]: 1.02 OD 450 nm
OD 450 nm [3]: 0.46 OD 450 nm
OD 450 nm [4]: 2.9 OD 450 nm
OD 450 nm [5]: 3.16 OD 450 nm
OD 450 nm [6]: 3.23 OD 450 nm
OD 450 nm [7]: 3.37 OD 450 nm
% (% gated × mean), against the chimeric antibody [8]: 88.8%
% gated [8]: 71%
Mean (fluorescence) [8]: 565

B4: recombinant humanized anti-CD66c antibody Protein ID 2938 (Vk5 + VH7) (antibody, human IgG1, V domains shown)
VH: B2 VH with K38R, N44G
VL: B2 VL with N34A, T69R
notes: also called hu 2938
OD 450 nm [1]: 0.48 OD 450 nm
OD 450 nm [2]: 0.65 OD 450 nm
OD 450 nm [3]: 0.06 OD 450 nm
OD 450 nm [4]: 2.56 OD 450 nm
OD 450 nm [5]: 3.08 OD 450 nm
OD 450 nm [6]: 3.16 OD 450 nm
OD 450 nm [7]: 3.43 OD 450 nm
% (% gated × mean), against the chimeric antibody [8]: 96%
% gated [8]: 71%
Mean (fluorescence) [8]: 611

B5: anti-CD66c chimeric antibody 8F5 (antibody, human IgG1, V domains shown)
VH: EVQLQQSGPELVKPGASMKISCKASGYSFTDYTMNWVKQSHGKNLEWIGLINPFHGGTVSNQRFKVKATLTVDVSSNTAYMELLSLTSDDSAVYYCVRGDPVRHYYALAYWGQGTSVTVSS
VL: DIQMTQSPASLSASVGETVTITCGASENVYGTLNWYQRKQGKSPQLLIYGATNLADGMSSRFSGSGSGRQYSLKISSLHPDDVATYYCQNVLSAPYTFGGGTKLEII
notes: also called chimeric 8F5; chi 8F5
OD 450 nm [1]: 0.53 OD 450 nm
OD 450 nm [2]: 0.8 OD 450 nm
OD 450 nm [3]: 0.51 OD 450 nm
OD 450 nm [4]: 2.83 OD 450 nm
OD 450 nm [5]: 3.3 OD 450 nm
OD 450 nm [6]: 3.3 OD 450 nm
OD 450 nm [7]: 3.17 OD 450 nm
% (% gated × mean), against the chimeric antibody [8]: 100%
% gated [8]: 73%
Mean (fluorescence) [8]: 619

Further lines, results first:

OD 450 nm [1]: 0.53 OD 450 nm
OD 450 nm [2]: 0.74 OD 450 nm
OD 450 nm [3]: 0.05 OD 450 nm
OD 450 nm [4]: 2.22 OD 450 nm
OD 450 nm [5]: 2.8 OD 450 nm
OD 450 nm [6]: 3.19 OD 450 nm
OD 450 nm [7]: 2.87 OD 450 nm
% (% gated × mean), against the chimeric antibody [8]: 103%
% gated [8]: 72%
Mean (fluorescence) [8]: 645
B1: recombinant humanized anti-CD66c antibody Protein ID 3058 (Vk8 + VH11) (antibody, human IgG1, V domains shown)
VH: QVQLVQSGAEVKKPGASVKISCKASGYSFTDYTMHWVKQAPGQNLEWIGLINPFGGSTSYAQKFKGRVTMTRDTSTNTAYMELSRLRSDDTAVYYCVRGDPVRHYYALAYWGQGTLVTVSS
VL: B2 VL with G24R, V58M
notes: also called hu 3058; #86

OD 450 nm [1]: 0.7 OD 450 nm
OD 450 nm [2]: 0.91 OD 450 nm
OD 450 nm [3]: 0.43 OD 450 nm
OD 450 nm [4]: 2.29 OD 450 nm
OD 450 nm [5]: 2.92 OD 450 nm
OD 450 nm [6]: 2.74 OD 450 nm
OD 450 nm [7]: 2.73 OD 450 nm
% (% gated × mean), against the chimeric antibody [8]: 105%
% gated [8]: 69%
Mean (fluorescence) [8]: 686
B3: recombinant humanized anti-CD66c antibody Protein ID 3043 (Vk8 + VH6) (antibody, V domains shown)
VH: B2 VH
VL: B2 VL with G24R, V58M
notes: also called hu 3043; #71
